T1: Bd0055 (UniProt Q6MRM1 1-64)
T1 sequence: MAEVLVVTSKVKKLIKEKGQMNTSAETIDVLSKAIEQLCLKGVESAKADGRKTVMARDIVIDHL

B1: Bd0055, B. bacteriovorus histone (natural protein, Bdellovibrio bacteriovorus HD100, UniProt Q6MRM1 1-64, looked up)
chain: T1 sequence
notes: Bd0055, singlet histone-fold protein of Bdellovibrio bacteriovorus HD100; open reading frame codon optimized for E. coli, cloned into a pET vector; No tag is named; purified by cation exchange, heparin and size exclusion; Histone-fold homodimer in both crystal structures; also called wild type Bd0055; bacterial histone Bd0055; source: E. coli, purified (SP HP, Heparin HP, S75)
B2: 35 bp crystallization DNA (dsDNA)
DNA 1: TCTTGCACTAAGAGCTACTGGAGTGCGTCAGATGT
DNA 2: ACATCTGACGCACTCCAGTAGCTCTTAGTGCAAGA

Columns and labels:
[1] = biological target: the molecule itself; assay: crystal structure; apo Bd0055; hanging drop, 3.2 M (NH4)2SO4, 100 mM BICINE pH 9; 1.8 Å
[2] = biological target: T1, Bd0055; assay: X-ray crystallography; 1 dimer per 2.5 bp; straight DNA; asymmetric unit has one dimer with 2 nt + 3 nt; FP/FRET: 10 nM DNA, 10 mM NaCl, 1 mM EDTA, 50 mM HEPES pH 6, r.t.; EMSA: 1 µM DNA, 10 mM NaCl, 1 mM EDTA, 50 mM HEPES pH 7.5, r.t., 10% native PAGE 0.2x TBE; conditions: protein: recombinant; chain copies: 2; blunt

Row | Binder | binding result [1] | binding result [2]
1 | B1 | binds | 
2 | B2 |  | binds
